Data on one molecule can be found in PMC11820797, “Rapid Detection of Alpha-Fetoprotein (AFP) with Lateral Flow Aptasensor”.

The target in this data set is T1, alpha-fetoprotein (AFP) (UniProt P02771 19-609).
T1 sequence: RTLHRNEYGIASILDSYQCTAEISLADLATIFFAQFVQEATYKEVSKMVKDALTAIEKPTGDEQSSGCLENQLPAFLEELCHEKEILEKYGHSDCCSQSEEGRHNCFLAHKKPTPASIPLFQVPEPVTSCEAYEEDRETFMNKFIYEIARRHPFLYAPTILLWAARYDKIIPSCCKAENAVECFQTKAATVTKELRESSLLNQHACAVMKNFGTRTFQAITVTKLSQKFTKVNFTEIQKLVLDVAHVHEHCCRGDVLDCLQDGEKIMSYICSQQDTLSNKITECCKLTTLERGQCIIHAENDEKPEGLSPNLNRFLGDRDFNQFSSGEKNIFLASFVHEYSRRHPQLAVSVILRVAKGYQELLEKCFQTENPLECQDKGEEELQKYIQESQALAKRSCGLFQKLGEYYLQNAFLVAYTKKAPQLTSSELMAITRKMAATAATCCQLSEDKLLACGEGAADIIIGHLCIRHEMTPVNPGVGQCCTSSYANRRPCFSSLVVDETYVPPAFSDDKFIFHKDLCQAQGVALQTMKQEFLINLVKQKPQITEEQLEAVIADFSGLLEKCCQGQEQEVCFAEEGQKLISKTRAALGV
Nature of the data set: lateral flow aptamer sandwich; AP-273 as both AuNP probe and capture probe; 100 ng/mL AFP detected; LOD 10 ng/mL; Lateral flow strip, 50 uL running buffer (composition not in the material); pads pretreated with 0.05 M Tris-HCl, 2.5% Tween-20, 0.25% Triton X-100; assay pH and temperature not given. The conditions noted are these: label: AuNP (Det-Apt); biotin-streptavidin (Cap-Apt).

B1: AP-273 (Det-Apt / Cap-Apt) (ssDNA)
DNA: GTGACGCTCCTAACGCTGACTCAGGTGCAGTTCTCGACTCGGTCTTGATGTGGGTCCTGTCCGTCCGAACCAATC
modifications: thiol (Det-Apt) or biotin (Cap-Apt), printed at 5' end
On to B1, for which the binding result is listed as “binds”.
